# Source: the DeepSol protein solubility set
# Test: soluble on expression in E. coli; label from the status in PepcDB or PDB records
row,Sequence,soluble on expression in E. coli
1,MDRRQKRLIFSTITSKMNLSEEVDLEDYVARPDKISGADINSICQESGMLAVRENRYIVLAKDFEKAYKTVIKKDEQEHEFYK,soluble
2,MKEVYRYAYHYAGRPVGEGRLEVERRRGGVRASLQAEFLPPLPPGRQRWQTELDAEGFSLRFQERVEGKEVRVFAVERLEEEGVVLVSQGKESLAYPYLAPYHDPLSLFLALPGLALEPGEVVRFPMPGGRVYVERLPDVEVEGRARRQYRLRPGLSLVQVEEGRLVRVAQQVGRHVFEAVLLEAEGP,soluble
3,MKKILIVDDEKPISDIIKFNMTKEGYEVVTAFNGREALEQFEAEQPDIIILDLMLPEIDGLEVAKTIRKTSSVPILMLSAKDSEFDKVIGLELGADDYVTKPFSNRELQARVKALLRRSQ,soluble
4,MPLDSPAKLEFPLHWAVYVDCKDELNELLKNKSTLEIDKIDPRGRTPLMLAVTLQHFDCARLLMDAGADASIPNKEMWSVSNEAVAQGNEQFIQEVIHHRDYQRANRGAHAMKRSLEKLAEVPDFFCEMNWDFSSWVPFLSQACPSDCHKIYKRGSSVRIDTTLVSFEGASWVRGNQSYIFRLSRNGYAEFIVLDHDERIAAVQELRDDDIFNEYRPLPSALDDRLRNTISTTYIDVENIGFERTSRGFLSWFSSGETNETVDGYDCKVLNASNVHLVTKRRFDHLSSEARARLAQEEASESKAVTSFKKMMSTNKTDENTTRDLYEEGLSPDSYLDPHYEFDTGCDIGKRREVVKKSNAFQATLWMADEYPLNLHDQIIPIVELMAVNSPHFARLHNFIRLQLPAGFPVKIEIPLFHIVSARIAFQNINSPGKHVTPIDNQNVDIEEEAFEIPDGYAIDDDGRYGITWEDDDDRNNRNNRNQVANGNTSRRGLGNNYSDDMLLQYAIQQSLLESTARQPSRVQEEEYVDILEQIESVPVNPETDFYRAIRDSQVEEDRRRREDEQYEEDLRKVLELSKAEQ,not soluble
5,MPNPFSKGWKYLTASLDNKIEENADPVIQIKQAAEAAKKQHADIEQQAASVIGNRNQLQMKLNRLLKDQQSIQEKARQALSLSDSATDPAEQHKYLNAAEVYASQLVGVESEIEQTTTLHQQAEQAAEQATQQVKQSEARLHEQLSQINELTTQAQQAKMQEAAVAASDQINSIDPDRDVPTMDSIREKIERRYADALGSQELMQSSMNERIHEIEATTSERDMRANAKLDAIRAQMRGELPAGSEETEPPADK,not soluble
6,MMVDTGVDHRAVSSHDGPDAGRRVFGAADPRFACVVRAFASMFPGRRFGGGALAVYLDGQPVVDVWKGWADRAGWVPWSADSAPMVFSATKGMTATVIHRLADRGLIDYEAPVAEYWPAFGANGKATLTVRDVMRHQAGLSGLRGATQQDLLDHVVMEERLAAAVPGRLLGKSAYHALTFGWLMSGLARAVTGKDMRLLFREELAEPLDTDGLHLGRPPADAPTRVAEIIMPQDIAANAVLTCAMRRLAHRFSGGFRSMYFPGAIAAVQGEAPLLDAEIPAANGVATARALARMYGAIANGGEIDGIRFLSRELVTGLTRNRRQVLPDRNLLVPLNFHLGYHGMPIGNVMPGFGHVGLGGSIGWTDPETGVAFALVHNRLLSPLEHHHHHH,not soluble
7,MAHHHHHHMDEEVVLRGVEDITCRCVYSHVYVYARVCVFGYVLPSSSVVYRGTLAMECTFGVHEKKNKMKKNKCYLRGQTIGTRDTVCGVMCLNIPPRHCYCSFFLFPFYNPFLL,not soluble
8,SMFNNELMADVHFVVGPPGATRTVPAHKYVLAVGSSVFYAMFYGDLAEVKSEIHIPDVEPAAFLILLKYMYSDEIDLEADTVLATLYAAKKYIVPALAKACVNFLETSL,soluble
9,SPLPVALQTRLAKRGILKHLEPEPEEEIIAEDYDDDPVDYEATRLEGLPPSWYKVFDPSCGLPYYWNADTDLVSWLSPHDPNSVVTKSAKKLRSSNADAEEKLDRSHDKSDRGHDKSDRSHEKLDRGHDKSDRGHDKSDRDRERGYDKVDRERERDRERDRDRGYDKADREEGKERRHHRREELAPYPKSKKAVSRKDEELDPMDPSSYSDAPRGTWSTGLPKRNEAKTGADTTAAGPLFQQRPYPSPGAVLRANAEASRTKQQD,soluble
10,GSSGGPNVPELILQLLQLEPEEDQVRARIVGCLQEPAKSRSDQPAPFSLLCRMADQTFISIVDWARRCMVFKELEVADQMTLLQNSWSELLVLDHIYRQVQYGKEDSILLVTGQEVELSTVAVQAGSLLHSLVLRAQELVLQLHALQLDRQEFVCLKFLILFSLDVKFLNNHSLVKDAQEKANAALLDYTLSHYPHSGDKFQQLLLSLVEVRALSMQAKEYLYHKHLGNEMPRNNLLIEMLQAKQT,soluble
11,MNQAWQSQLPLSHIKNIVPVSGGDVNDAFRIETDQEDYFLLVQRKRKSTFFDAEIAGLNLFEKVGITAPRVIDSGEIEDDAYLLLTYLDEGVSGSQEALGQLVARMHSEQQADNQFGFDLPYEGGDISFDNSWTNSWITLFVEKRLDKLKDRLVQQGLWGDADVTQYQAVRRVIVNELESHNSKPSLLHGDLWGGNYMFLTDGSPALFDPAPLYGDREFDIGITSVFGGFTQAFYDAYHKHYPLSEGADVRLEFYRLYLLMVHLVKFGEMYAGSVDRSMQKILNQLEHHHHHH,soluble
12,MGSDKIHHHHHHMLQAFYTGLSGLNSYSKNLDNVSNNIANMNTAGYRGMDSFYQALGGDSDKPGLGAQISGLGYRFSVGDIRQTGNDFDLAITGTGFFALLDGEKVFYTRTGQFEFDQNNVLVDKNTGFKVAGIDSNGQLSEINLLSYQAIKPTATTKLSLTGNLSPLDDVHQISSAKMINSLGEEVDLSIKFTNEKATFPNQWKVEILDDKGIVLHSDSVKFGPDGTPEVGSGSFIFNLADSSGNTTPIDITVGTIGDFSAVTQTSATGVDSNVTLHAVDGKGVGQLVKRSFDPQGRVTLNYSNGDKVTPFTIAMVDFDDISTLSIESGTVFKASDLESRVLGKAGEGRFKQLATSSIEMSNVDLSQEFADMLVIQRGYQASSRILNVANQMIEQLYENTRGR,not soluble
13,MSNVHPYTIFATMPHKSTAKDILIMSYDLSKRLVIGLASSALFDLSESDNIFRMEGAETYRQYQREKQNHPLKKALSFHLLKNFCQSMK,not soluble
14,MVNKDVTKVCIGKIEELPEQLGKTVYIEDKELAVFKLSDGSIRAIENRCPHKGGVLAEGIVSGQYVFCPMHDWKISLEDGIVQEPDHGCVKTYETLIEGEHVYLVY,not soluble
15,MAHHHHHHMNDETKVFNKCFKKISNCYTLNKKGEKENSTGNQFVLHNCIQTLLSDPIVVLYTDNNYICTGSLTGKVCLYKITIKENKETNTNISYVYNNNNNITDDEKKCINDLNNREELKKENYSKSTIDDVVISKKELNNHNNINNNNNNNNNNNNNSEIIKKYHILCMFRNNSIKSIYIDKNNIYICYESCIDVFCVRSYQFIQKINLDVTNNKQVIYYENYILFNNSKSLFIYDITSNFSSYFYKNFLKNIVIFDFNINYLLCYKNNFGKCHIRVLQIFADAQKCEHELIFCVDFSSKFISHGKFLDDEKIIVAKNGKRLIIFDFKKAIDMYRIRKLKKKILDIHKSVENMLFILVENQIFIFNLSTFVFYKTVQLPKGLFYFKWSYFIRYKNRKIIFSSDKGVYYIDYSIEENV,soluble
16,KTKNEPKVILELAKESDLPEFQKKLQEAFAIAVIETFGDCEDGPIPSDNDVQESFNAPGAVVYHILQDGKNVGGAVVRINSQTNHNSLDLFYVSPEYHSQGIGLSAWKAIEAQYPDTVLWETVTPYFEKRNINFYVNKCGFHIVEFYNEHHSNPHMHRNGR,soluble
17,GMPELAVQKVVVHPLVLLSVVDHFNRIGKVGNQKRVVGVLLGSWQKKVLDVSNSFAVPFDEDDKDDSVWFLDHDYLENMYGMFKKVNARERIVGWYHTGPKLHKNDIAINELMKRYCPNSVLVIIDVKPKDLGLPTEAYISVEEVHDDGTPTSKTFEHVTSEIGAEEAEEVGVEHLLRDIKDTTVGT,soluble
18,MPRYTESEWLTDFIIDALDSGRFWGVGWLDEQKRIFTVPGRNRRERMPEGFDDFYEAFLEERRRHGLPEIPETETGLGCFGRLLRTANRARQERPFTIYKGKMKLNRWIMTPRPYKGCEGCLVYLTQEPAMKNMLKALFGIYPHDDKHREKALRRSLRKKAQRREAARKQAAAVATPTTSSAAEVSSRSQSEDTESSDSENELWVGAQGFVGRDMHSLFFEEPEPSGFGSSGQSSSLLAPDSPRPSTSQVQGPLHVHTPTDLCLPTGGLPSPVIFPHETQGLLAPPAGQSQTPFSPEGPVPSHVSGLDDCLPMVDHIEGCLLDLLSDVGQELPDLGDLGELLCETASPQGPMQSEGGEEGSTESVSVLPATHPLESSAPGASVMGSGQELPDLGDLSELLCETASPQGPMQSEGGEEGSTESVSVLPATHPLESSAPGASVMGSSFQASDNVDDFIDCIPPLCRDDRDVEDQEKADQTFYWYGSDMRPKVLTATQSVAAYLSKKQAIYKVGDKLVPLVVEVYYFGEKVKTHFDLTGGIVICSQVPEASPEHICQTVPPYKCLLPRTAHCSVDANRTLEQTLDRFSMGVVAIGTNMGIFLKGLLEYPAYFVGNASRRRIGKCRPLSHRHEIQQAFDVERHNREPEGSRYASLFLGRRPSPEYDSDHYPVILHIYLAPFYHRD,not soluble
19,MGSDKIHHHHHHMNNFNNEIKLILQQYLEKFEAHYERVLQDDQYIEALETLMDDYSEFILNPIYEQQFNAWRDVEEKAQLIKSLQYITAQCVKQVEVIRARRLLDGQASTTGYFDNIEHCIDEEFGQCSIASNDKLLLVGSGAYPMTLIQVAKETGASVIGIDIDPQAVDLGRRIVNVLAPNEDITITDQKVSELKDIKDVTHIIFSSTIPLKYSILEELYDLTNENVVVAMRFGDGIKAIFNYPSQETAEDKWQCVNKHMRPQQIFDIALYKKAAIKVGITDV,not soluble
20,MGSDKIHHHHHHMMLRASYGTIRKVNGNSSLEMDTAYLMLGERCVYNCLYCAQSRSSTSPSHFLSRVTWKEVSEDLLGKLNDRFKRVCIQVVSYPSYGKDLRLIIPRFRIPVSVSVRAVSIEEVVEYFELGADRVGIAVDVPNKTLFEKIRGGKYERHLHILEKVSEMFPGRITTHVIVGLGESDKDIVDFTVWARERNIVVSLFAFTPIKGTAFENRERPSLERYRKIQLVTYLLEKNLIKPENIIFDSNGKIIDVEWNGEFPEEALRTRGCPHCTRPYYNESPRGPIYNVHWR,not soluble
21,MFTIEHLNFAWLQVRAGSKSAGVDGISVDLFESMATEQLQNIAYQLKEETYTANPAKGFYIPKKNGTKRLIGIHTVRDRIIQRLLLDELYFPLEDTFLDCSYAYRPGHSIQQAVQHLYGYYQYQPKWIIKADVADFFDNLSWALLLTYLEELSLEPSLLQLLEQQLKSGIIIAGQYRNFGKGVLQGGILSGALANLYLTSFDRKCLSQGINLVRYGDDFVIACNSWLEANRILDKITGWLGEVYLTLQPEKTQIFTPNDEFTFLGYRFAGGEVYAPPPPEPVRPGEWVINDSGTPYFRLKPKPRKPVSLEHHHHHH,not soluble
22,MGGRSNSATTAAQQNAVLRIVVVGGGGVGKSALTIQFIQRYFVQDYDPTIEDSYTKQCFVDEDLCKLEILDTAGQEEFSTMREQYLRTGSGFLIVFAVTDRNSFEEVKKLHELICRIKDRDDFPIILVGNKADLENERHVARHEAEELAHRLSIPYLECSAKIRKNVDEAFFDIVRLVRKYQHDERMPIHPHDDRKLESPIKLKKKKNCRIQ,soluble
23,MPLVGQNVFKSSVTEYDAQTPVVYTVYNEVHQDLLNNTVFLKALADAIDSEIQAAREGKASLLANLQSIRLALQSGSANFGGPAGTTITHNLGTTNFRVSITPTANPDGYLGEIWVVKSSNTMTVFNSGDFRGAFDYQIFKN,not soluble
